Results on 30 sequences are retold here after the nanobody polyreactivity screen of Harvey et al. (2022).

The data set in a line: yeast display, Sf9 membrane polyspecificity reagent, FACS + sequencing; frameworks hold sequencing errors. The method, boiled down: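 Sorting gates, low and high (top ~1%), were placed on anti-HA fluorescence to track expression and on streptavidin fluorescence to track reagent binding. A clone's polyreactivity label is taken from the gate it came out of. The reagent was 10% biotinylated, detergent-solubilized Sf9 membrane, applied for 1 hour at 4 °C to galactose-induced yeast display cells.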
In the case of “QVQLVESGGGLVQAGGSLRLSCAASGSTFPPNAMGWYRQAPGKERELVADSSDSSTYYADSVKGRFTISRDNAKNTVYLQMNSLKPEDNAVYYCAAADAGLRSKSYGQQYDYWGQGTQVTVSS”, the “polyreactivity (PSR sort gate)” value is “low polyreactivity”.

As to “QVQLVESGGGLVQAGGSLRLSCAASGSTFPPNPMGWYRKATGKERELVSSIRRGGSTHYADSVKGRFTISRDNEKNTVYLQMNSLKPEDTAVYYCAKDVWRHYLNLYDYWGQGTQVTVSS”, the “polyreactivity (PSR sort gate)” value is “low polyreactivity”.

For the sequence “QVQLVESGGGLVQAGGSLRLSCAASGSTFPPYAMGWYRKATGNERELVADISSGVSTNYADSVNGRFTISRDNAKNTVYLQMHSLKPEDTAVYYCAADVYHYEWWYFSEFDYWGLGTQVTVSS”, the “polyreactivity (PSR sort gate)” value is listed as “low polyreactivity”.

Take “QVQLVESGGGLVQAGGSLRLSCAASGSTFPPYAMGWYRQAPGKERELVADITRRGASTYYADSVKGRFTISRDNAKNTDYLQMNSLKPEDTAVYYFAAGPYVGQRWYRYNYDYWGQGTQVTVSS”: the “polyreactivity (PSR sort gate)” value was “high polyreactivity”.

On to “QVQLVESGGGLVQAGGSLRLSCAASGSTFPRNAMGWYRQAPGKERELVAAISYSGGRTYYADSVKGRFTISRDNAKNTVYLQMNSLKPEDTAVYYCAAQPYSHVRGKSYGYWGQGTQVTVSS”, for which the “polyreactivity (PSR sort gate)” value is “high polyreactivity”.

On to “QVQLVESGGGLVQAGGSLRLSCAASGSTFPRYAMGWYRQAPGKERELVAAISSSGRTYYADSVKGRFTISRDNAKNTVYLQMNSLKPEDTAVYYCNAPVARGEASYYWGQGTQVTVSS”, for which the “polyreactivity (PSR sort gate)” value is “high polyreactivity”.

As for “QVQLVESGGGLVQAGGSLRLSCAASGSTFPSYAMGWYRQAPGKERELVAAINRSGGSTYYADSVKGRFTISRDNAKNTVYLQMNSLKPEYTAVYYCATGLTTGGGYYWGQGTQVTVSS”, the “polyreactivity (PSR sort gate)” value is given as “high polyreactivity”.

As for “QVQLVESGGGLVQAGGSLRLSCAASGSTFPSYAMGWYRQAPGKERELVAAINSGGGTNYADSVKGRFTISRDNAKNTVYLQINSLKPEDTAVFYCAKSRYDYTKTEGVYWGQGTQVTVSS”, the “polyreactivity (PSR sort gate)” value was “low polyreactivity”.

As to “QVQLVESGGGLVQAGGSLRLSCAASGSTFPSYAMGWYRQAPGKERELVAVITSGGRTYYADSVKGRFTISRDNAKNTVYLQMNSLKPEDTAVYYCAARGHRGYQGYDYWGQGTPVTVSS”, the “polyreactivity (PSR sort gate)” value was “high polyreactivity”.

Regarding “QVQLVESGGGLVQAGGSLRLSCAASGSTFPSYTMGWYRQAPGKERELVAAITLSGGSTYYADSVNGRFTISRDNAKYTVYLQMNSLKPSDTAVYYCAAYSQRGYYWGQGTQVTVSS”, the “polyreactivity (PSR sort gate)” value is “low polyreactivity”.

Turning to “QVQLVESGGGLVQAGGSLRLSCAASGSTFPTYAMGWYRQAPGKERELVAAITRGGRTYYADSVKGRFTISRDNAKNTVYLQMNSLKPEDTAVYYCAAVYYGAAQYNYWGQGTQVTVSS”, the “polyreactivity (PSR sort gate)” value was “high polyreactivity”.

In the case of “QVQLVESGGGLVQAGGSLRLSCAASGSTFPVYAMGWYRQAPGKERELVAAISRSGASTYYADSVKGRFTISRDNAKNTVYLQMNSLKPEDTAVYYCARGYQGRLKYEYWGQGTQVTVSS”, the “polyreactivity (PSR sort gate)” value is “low polyreactivity”.

With “QVQLVESGGGLVQAGGSLRLSCAASGSTFPVYAMGWYRQAPGKERELVASLSSGAETNYADSVKGRFTISRDNAKNTVYLQLISLTPEDTAVYYCAATVPLRTIRPRSYGYWGQGTQVTVSS”, the “polyreactivity (PSR sort gate)” value was “low polyreactivity”.

Take “QVQLVESGGGLVQAGGSLRLSCAASGSTFPWNAMGWYRPAPGKERELVAAISSGGSTNYADSVKGRFTISRDNAKNTVYLQMNSLKPEDTAVYYCNAYYWSDSRGKYDYWGQGTQVTVSS”: the “polyreactivity (PSR sort gate)” value was “low polyreactivity”.

Consider “QVQLVESGGGLVQAGGSLRLSCAASGSTFPWNAMGWYRQAPGKERELVAAINYGNGSTYYADSVKGRFTISRDNAKNTVYLQMNSLKPEDTAVYYCNADYTGTRTDSVTPEYEYCGQGTQVTVSS”, for which the “polyreactivity (PSR sort gate)” value is on record as “low polyreactivity”.

As to “QVQLVESGGGLVQAGGSLRLSCAASGSTFPWNAMGWYSQAPGKEREMVAAINYGNGSTYYADSVKGRFTISRDNAKNTVYLQMNSLKPEDTAVYYCNADYTGTRTDSVSPEYEYWGQGTQVTVSS”, the “polyreactivity (PSR sort gate)” value was “low polyreactivity”.

For “QVQLVESGGGLVQAGGSLRLSCAASGSTFPYNAMGSYRQAPGKERELVAAISSSGGRTYYADSVKGRFTISRDTAKNTVYLQMNSLKPEDTAVYYCNAAYYYTYGYWGQGTQVTVSS”, the “polyreactivity (PSR sort gate)” value is recorded as “high polyreactivity”.

For the sequence “QVQLVESGGGLVQAGGSLRLSCAASGSTFPYNAMGWYRPAPGKERELVAAISSGGITYYADSVKGRFTISRDNAKNTVYLQMNSLIPEDTAVYYCAATVLGDYEYWGQGTQVTVSS”, the “polyreactivity (PSR sort gate)” value is “low polyreactivity”.

For the sequence “QVQLVESGGGLVQAGGSLRLSCAASGSTFPYNAMGWYRQAPGKERELLAAISWRGGRTYYADSVKGRFTISRDNAKNTVYLQMNSLKPEYTGVFYCAVVLSTYSYADYDYWGQGTHVTVSS”, the “polyreactivity (PSR sort gate)” value is “high polyreactivity”.

Take “QVQLVESGGGLVQAGGSLRLSCAASGSTFPYPYTMGWYRQAPGKERELVAVNSRTGGSTFYADSVKGRFTISRDNAKNTVYFQMNSLKPEDTAVYYCAARRDGWTFWKYDYWGQGTQVTVSS”: the “polyreactivity (PSR sort gate)” value is “high polyreactivity”.

In the case of “QVQLVESGGGLVQAGGSLRLSCAASGSTFPYYAMGWYRQAPGKEREFVAAISSSGGSTYYADSVKWRFTISRDNAKNTVYLQMNSLKPEDTAVYYCAAQGARRNYYRYGTYTNRRYDYWGQGTQVTVSS”, the “polyreactivity (PSR sort gate)” value is reported as “high polyreactivity”.

For “QVQLVESGGGLVQAGGSLRLSCAASGSTFPYYAMGWYRQAPGKERELVAVITSSGSRTYYADSVKGRFTISRDNAKNTVYLPMNSLKPEDTAVYYCARDTRYYLPYRSQYDYWGQGTQVTVSS”, the “polyreactivity (PSR sort gate)” value is listed as “high polyreactivity”.

With “QVQLVESGGGLVQAGGSLRLSCAASGSTFQDNAMGWYRQAPGKERELVAVITRTGGDTNYADSVKGRFTISRDNAKNTVYLQMNSLKPEDTAVYYCAADNVYVTWFYYWGQGTQVTVSS”, the “polyreactivity (PSR sort gate)” value was “low polyreactivity”.

As to “QVQLVESGGGLVQAGGSLRLSCAASGSTFQFYALGWYRQAPGKERELVAAISVSGDRTYYADSVKGRFTISRDYAKNTVYLQMNSLKPEDTAVYYCAASIWHFEVVSWYLYDYWGQGTQVTVSS”, the “polyreactivity (PSR sort gate)” value is given as “high polyreactivity”.

As to “QVQLVESGGGLVQAGGSLRLSCAASGSTFQFYAMGWYRQAPGKERELVAAISVSGDRTYYADSVKGRFTISRDNAKNTVYLQMNSLKPEDTAVYYCAARYGPFKRRFDYWGQGTQVTVSS”, the “polyreactivity (PSR sort gate)” value is on record as “high polyreactivity”.

“QVQLVESGGGLVQAGGSLRLSCAASGSTFQGYAMGRYRQAPGKERELVAGITGSGGSSYYADSVKGRFTISRDNAKNTVYLQMNSLKPEDTAVYYCAARYYQSYYYKYYYWGQGTQVTVSS”: the “polyreactivity (PSR sort gate)” value is “high polyreactivity”.

As for “QVQLVESGGGLVQAGGSLRLSCAASGSTFQGYTMGWYRQAPGKERELVAAISVRRGITYYADSVKGRFTISRDNAKNTVYLQMNSLKPEDTAVYYCNAYYYRPYGNKYGYWGQGTQVTVSS”, the “polyreactivity (PSR sort gate)” value is “high polyreactivity”.

Turning to “QVQLVESGGGLVQAGGSLRLSCAASGSTFQLYAMGWYRQAPGKERELVAGISRDGSTYYADSVKGRFTISRDNAKNTVYLQMNSLKPEDTAVYYCAAKYYGNKRDLYYWGQGTQVTVSS”, the “polyreactivity (PSR sort gate)” value is reported as “low polyreactivity”.

On to “QVQLVESGGGLVQAGGSLRLSCAASGSTFQLYDMGWYRQEPGKERELVAGISRDGSTYYADSVKGRFTISRDNAKNTVYLLMNSLKPEDTAVYYCAAKFYGNKRDLYYWGQGTQVTVSS”, for which the “polyreactivity (PSR sort gate)” value was “low polyreactivity”.

Take “QVQLVESGGGLVQAGGSLRLSCAASGSTFQLYSMGWYRQAPGKERELVAAIRWRGGSTYYADSVKGRFTISRDNAKNTVYLQMNSLKPEDTAFYYCAAVGYNYNVEYYYWGQGTQVTVSS”: the “polyreactivity (PSR sort gate)” value is “high polyreactivity”.
